Measured values reported in patent publication US20240343811A1 (SHANDONG SIMCERE BIOPHARMACUTICAL, published 2024).
Positions count from the first letter of the chain named. Read-outs that look alike come from different tables or passages of the source.

Columns and labels:
[1] = target: T1, cynomolgus monkey CD16, full length, on FlpinCHO cells (cynomolgus monkey, UniProt Q8SPW2 17-254); assay: FACS on FlpinCHO cells
T1 construct: also called FlpinCHO-cyno CD16; Flipin CHO-cyno CD16
Protocol: The required cells were scale-up cultured in a T-75 cell culture flask to the logarithmic growth phase. The medium was aspirated, and the cells were washed twice with a PBS buffer and then digested with trypsin. After the digestion was terminated, the cells were washed twice with the PBS buffer. The cells were counted, and then the cell pellet was resuspended with a [PBS+2% (w/w) BSA] blocking solution to 2×10⁶ cells/ml, and added to a 96-well FACS reaction plate at 50 μl/well. […] 50 μl/well of the antibody to be detected was added at different concentrations, and incubated on ice for 1 hour. […] The mixture was centrifuged and washed 5 times with PBS, and FACS (FACS Canto II, purchased from BD Company) was used for detection and result analysis. Data analysis was performed by software (CellQuest) to obtain the mean fluorescence intensity (MFI) of the cells. Then, software (GraphPad Prism8) was used for analysis, data fitting and EC50 value calculation.
Flipin CHO-cyno CD16 cells were subjected to FACS detection and data analysis according to the method of Example 3.1.

Human CD16a (158F)-his = target: T2, Human CD16a (158F)-his (human); assay: SPR (Biacore), antibody captured on Protein A
T2 construct: entry holds ECD, AVI tag, linker and His tag
How it was run: (§1)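 Protein A–captured antibody was probed with CD16-his ECD in HBS-EP+ at 25 °C: five 2-fold dilutions from 200 nM, 240 s at 30 μL/min, dissociation up to 600 s. Glycine pH 1.5 regenerated the chip. Apparent KD came from a double-referenced 1:1 Langmuir fit.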

[2] = target: T3, CD16 on primary human NK cells (human, UniProt P08637 17-254); assay: FACS on human NK cells, biotinylated antibody
T3 construct: whole, on cells; also called resting NK cells

[3] = target: T4, human CD16a (158V), full length, on cells (human, UniProt P08637 17-254); assay: cell-based or functional assay
[4] = target: T3, CD16 on primary human NK cells; assay: FACS on human NK cells, biotinylated antibody, +10 mg/mL human immunoglobulin
[5] = target: T5, human CD16a (158F), full length, on FlpinCHO cells (human, UniProt P08637 17-254); assay: FACS on FlpinCHO cells
[6] = target: T4, human CD16a (158V), full length, on …; assay: FACS on FlpinCHO cells
[7] = target: T6, human CD16b (NA2), full length, on FlpinCHO cells (human, UniProt O75015 17-200); assay: FACS on FlpinCHO cells
T6 construct: also called FlpinCHO-human CD16b (NA2)
T6 chain: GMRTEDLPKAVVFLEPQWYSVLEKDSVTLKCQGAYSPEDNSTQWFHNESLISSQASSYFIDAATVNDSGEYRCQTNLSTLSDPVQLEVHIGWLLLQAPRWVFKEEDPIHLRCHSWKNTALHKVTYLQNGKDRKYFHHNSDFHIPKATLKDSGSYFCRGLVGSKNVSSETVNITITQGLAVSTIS
How it was run: (§2)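 Trypsin-detached FlpinCHO cells expressing full-length CD16b were blocked in PBS+2% BSA and incubated on ice for 1 hour with antibody at varying concentrations. Binding read by flow cytometry as MFI; EC50 from curve fitting.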

[8] = target: T7, human CD16b (NA1), full length, on FlpinCHO cells (human, UniProt O75015 17-200); assay: FACS on FlpinCHO cells
T7 construct: also called FlpinCHO-human CD16b (NA1)
T7 chain: T6 chain with S20R, S49N, N66D, I90V
How it was run: as §2

[9] = target: T5, human CD16a (158F), full length, on …; assay: FACS, biotinylated antibody, +10 mg/mL human immunoglobulin
[10] = target: T4, human CD16a (158V), full length, on …; assay: as above
[11] = target: T4, human CD16a (158V), full length, on …; assay: cell-based or functional assay; remark: listed apart in the source
[12] = target: T3, CD16 on primary human NK cells; assay: FACS on human NK cells, biotinylated antibody; remark: listed apart in the source
[13] = target: T3, CD16 on primary human NK cells; assay: FACS on human NK cells, biotinylated antibody, +10 mg/mL human immunoglobulin; remark: listed apart in the source
[14] = target: T5, human CD16a (158F), full length, on …; assay: FACS, biotinylated antibody
[15] = target: T4, human CD16a (158V), full length, on …; assay: FACS, biotinylated antibody
Human CD16a (158V)-his = target: T8, Human CD16a (158V)-his (human); assay: SPR (Biacore), antibody captured on Protein A
T8 construct: entry holds ECD, AVI tag, linker and His tag
How it was run: as §1

Human CD16b (NA1)-his = target: T9, Human CD16b (NA1)-his (human); assay: SPR (Biacore), antibody captured on Protein A
T9 construct: entry holds ECD, linker, His tag and AVI tag
T9 chain: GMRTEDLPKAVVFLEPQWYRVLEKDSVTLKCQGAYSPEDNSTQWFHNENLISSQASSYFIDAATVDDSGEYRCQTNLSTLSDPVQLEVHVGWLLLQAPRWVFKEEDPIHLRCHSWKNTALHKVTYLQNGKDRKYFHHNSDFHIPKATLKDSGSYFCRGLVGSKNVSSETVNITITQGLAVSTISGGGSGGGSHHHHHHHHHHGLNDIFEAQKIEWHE
How it was run: as §1

[16] = target: T7, human CD16b (NA1), full length, on …; assay: FACS on FlpinCHO cells
How it was run: as §2

[17] = target: T3, CD16 on primary human NK cells; assay: FACS on human NK cells
How it was run: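 Freshly prepared human NK cells were resuspended at 2×10⁶ cells/ml in PBS+2% (w/w) BSA and incubated 1 h on ice with antibody at varying concentrations. After five PBS washes, flow cytometry gave mean fluorescence intensity, and EC50 was fitted from the MFI curve.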

[18] = target: T5, human CD16a (158F), full length, on …; assay: FACS on FlpinCHO cells; remark: listed apart in the source
How it was run: (§3)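 Trypsinised cells in PBS + 2% BSA were incubated on ice for 1 hour with antibody at a range of concentrations. After washes, mean fluorescence intensity was read by flow cytometry. EC50 values were derived by curve fitting of MFI.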

[19] = target: T4, human CD16a (158V), full length, on …; assay: FACS on FlpinCHO cells; remark: listed apart in the source
How it was run: as §3

T1 sequence (Q8SPW2 other isoform, or with tags, fused parts or gaps limits assumed): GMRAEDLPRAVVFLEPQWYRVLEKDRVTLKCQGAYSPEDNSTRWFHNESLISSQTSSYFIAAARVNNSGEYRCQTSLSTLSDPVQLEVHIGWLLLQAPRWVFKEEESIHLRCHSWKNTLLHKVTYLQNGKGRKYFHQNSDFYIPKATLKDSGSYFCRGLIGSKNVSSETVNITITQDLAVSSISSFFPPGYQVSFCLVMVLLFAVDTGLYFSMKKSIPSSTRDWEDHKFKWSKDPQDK

B1: VHH12-05 humanized VHH-Fc antibody (Fc fusion)
chain: EVQLVESGGGLVQPGGSLRLSCAASGITFSSYAMGWYRQAPGKQRELVAAINRFGLTNYVDSVKGRFTISRVNAKNSLYLQMNSLRAEDTAVYYCNTGGVYSHPDYYTGTYWGQGTMVTVSSEPKSSDKTHTCPPCPAPEEFGGPSVFLFPPKPKDTLMISRTPEVTCVVVAVSHEDPEVKFNWYVDGVEVHNAKTKPREEQYNSTYRVVSVLTVLHQDWLNGKEYKCKVSNKALPAPIEKTISKAKGQPREPQVYTLPPSREEMTKNQVSLTCLVKGFYPSDIAVEWESNGQPENNYKTTPPVLDSDGSFFLYSKLTVDKSRWQQGNVFSCSVMHEALHNHYTQKSLSLSPGK
In the case of B1, the EC50 [1] is reported as 0.55 nM, the “Maximum mean fluorescence intensity” value [1] is reported as 18300 and the Kd (Human CD16a (158F)-his) is reported as 53.9 nM. It also gave a koff (Human CD16a (158F)-his) of 0.0208 s⁻¹, a kon (Human CD16a (158F)-his) of 385000 M⁻¹ s⁻¹ and an EC50 [2] of 0.65 nM. For the same binder, the “Maximum mean fluorescence intensity” value [2] was 70400, the “EC50, activation activity for Jurkat cell” value (“EC50, activation activity” below) [3] was 0.01 nM and the Maximum fluorescence value [3] was 122000. The EC50 [4] was 2.48 nM, the “Maximum mean fluorescence intensity” value [4] was 72100 and the EC50 [5] was 0.35 nM. The “Maximum mean fluorescence intensity” value [5] was 9340, the EC50 [6] was 0.41 nM and the “Maximum mean fluorescence intensity” value [6] was 8130. For the same binder, the “Maximum mean fluorescence intensity” value [7] was 74000, the EC50 [8] was 0.95 nM and the “Maximum mean fluorescence intensity” value [8] was 48200.

B2: VHH05 VHH-Fc antibody (Fc fusion)
chain: QVQLVESGGGLVQAGGSLRLSCVASSSTVTTYAVRWYRQAPGKQREWVAFISVDGNTNYPDSVKGRFIVSRDNAKNTVYLQMNSLKPEDTADYICRAGGQYWGQGTQVTVSSEPKSSDKTHTCPPCPAPEFEGGPSVFLFPPKPKDTLMISRTPEVTCVVVAVSHEDPEVKFNWYVDGVEVHNAKTKPREEQYNSTYRVVSVLTVLHQDWLNGKEYKCKVSNKALPAPIEKTISKAKGQPREPQVYTLPPSREEMTKNQVSLTCLVKGFYPSDIAVEWESNGQPENNYKTTPPVLDSDGSFFLYSKLTVDKSRWQQGNVFSCSVMHEALHNHYTQKSLSLSPGK
B2 was tested, and the EC50 [9] was 1.51 nM, the “Maximum mean fluorescence intensity” value [9] was 10000 and the EC50 [10] was 1.7 nM. For the same binder, the “Maximum mean fluorescence intensity” value [10] was 13300, the “EC50, activation activity” value [11] was 0.03 nM and the Maximum fluorescence value [11] was 171000. The EC50 [12] was 1.15 nM, the “Maximum mean fluorescence intensity” value [12] was 63200 and the EC50 [13] was 2.94 nM. The “Maximum mean fluorescence intensity” value [13] was 72800, the EC50 [14] was 0.33 nM and the “Maximum mean fluorescence intensity” value [14] was 8780. For the same binder, the EC50 [15] was 0.74 nM, the “Maximum mean fluorescence intensity” value [15] was 12400 and the Kd (Human CD16a (158V)-his) was 3.73 nM. For the same binder, the koff (Human CD16a (158V)-his) was 0.000321 s⁻¹, the kon (Human CD16a (158V)-his) was 86100 M⁻¹ s⁻¹ and the Kd (Human CD16b (NA1)-his) was 9.28 nM. For the same binder, the koff (Human CD16b (NA1)-his) was 0.000958 s⁻¹, the kon (Human CD16b (NA1)-his) was 103000 M⁻¹ s⁻¹ and the Kd (Human CD16a (158F)-his) was 8.16 nM. For the same binder, the koff (Human CD16a (158F)-his) was 0.000499 s⁻¹, the kon (Human CD16a (158F)-his) was 61200 M⁻¹ s⁻¹ and the EC50 [16] was 0.96 nM. The “Maximum mean fluorescence intensity” value [16] was 42500, the EC50 [17] was 0.62 nM and the “Maximum mean fluorescence intensity” value [17] was 2560. The EC50 [18] was 0.49 nM, the “Maximum mean fluorescence intensity” value [18] was 7320 and the EC50 [19] was 0.53 nM. For the same binder, the “Maximum mean fluorescence intensity” value [19] was 8100.

B3: VHH06-04 humanized VHH-Fc antibody (Fc fusion)
chain: EVQLVESGGGVVQPGGSLRLSCAASGSTWTTYAVRWYRQAPGKQREWVAFISVDGSTNYPDSVKGRFTISRDNSKNTVYLQMNSLRAEDTADYICRVGGQYWGQGTMVTVSSEPKSSDKTHTCPPCPAPEEFGGPSVFLFPPKPKDTLMISRTPEVTCVVVAVSHEDPEVKFNWYVDGVEVHNAKTKPREEQYNSTYRVVSVLTVLHQDWLNGKEYKCKVSNKALPAPIEKTISKAKGQPREPQVYTLPPSREEMTKNQVSLTCLVKGFYPSDIAVEWESNGQPENNYKTTPPVLDSDGSFFLYSKLTVDKSRWQQGNVFSCSVMHEALHNHYTQKSLSLSPGK
Binder B3 has a Kd (Human CD16a (158F)-his) of 9.8 nM, a koff (Human CD16a (158F)-his) of 0.000467 s⁻¹ and a kon (Human CD16a (158F)-his) of 47700 M⁻¹ s⁻¹. For the same binder, the EC50 [2] was 1.34 nM, the “Maximum mean fluorescence intensity” value [2] was 61800 and the “EC50, activation activity” value [3] was 0.02 nM. For the same binder, the Maximum fluorescence value [3] was 159000, the EC50 [4] was 3.99 nM and the “Maximum mean fluorescence intensity” value [4] was 71400. The EC50 [5] was 0.39 nM, the “Maximum mean fluorescence intensity” value [5] was 9570 and the EC50 [6] was 0.4 nM. The “Maximum mean fluorescence intensity” value [6] was 8890, the “Maximum mean fluorescence intensity” value [7] was 437 and the binding result [7] was “no binding (tested: 100 nM)”. The EC50 [8] was 0.32 nM and the “Maximum mean fluorescence intensity” value [8] was 53000.

B4: VHH06-05 humanized VHH-Fc antibody (Fc fusion)
chain: B3 chain with P60A, S74A
In the case of B4, the Kd (Human CD16a (158F)-his) is reported as 26.9 nM, the koff (Human CD16a (158F)-his) is reported as 0.00109 s⁻¹ and the kon (Human CD16a (158F)-his) is reported as 40300 M⁻¹ s⁻¹. The EC50 [2] was 1.33 nM, the “Maximum mean fluorescence intensity” value [2] was 53900 and the “EC50, activation activity” value [3] was 0.03 nM. For the same binder, the Maximum fluorescence value [3] was 176000, the EC50 [4] was 3.66 nM and the “Maximum mean fluorescence intensity” value [4] was 64900. The EC50 [5] was 0.27 nM, the “Maximum mean fluorescence intensity” value [5] was 8890 and the EC50 [6] was 0.23 nM. For the same binder, the “Maximum mean fluorescence intensity” value [6] was 8840, the “Maximum mean fluorescence intensity” value [7] was 296 and the binding result [7] was “no binding (tested: 100 nM)”. The EC50 [8] was 0.18 nM and the “Maximum mean fluorescence intensity” value [8] was 55200.
